From article doi:10.1101/2022.09.07.507039

How the values were obtained:
[1] = target: native Gli123 protein (Mycoplasma mobile); test: SEC
[2] = target: native Gli123 protein (Mycoplasma mobile); test: negative-staining EM with single-particle analysis
[3] = target: recombinant Gli123 (Mycoplasma mobile); test: SEC-SAXS

With native Gli123 protein (natural protein) the stoichiometry N [1] was 2 and the stoichiometry N [2] was 2.

recombinant Gli123 (natural protein) showed a stoichiometry N [3] of 2.
